Values of other authors in publication PMC7226498.

Target: p53 OD (Homo sapiens) (UniProt P04637)

Chain of p53 OD (P04637 325-356): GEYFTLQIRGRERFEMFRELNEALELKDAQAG

Kd: 1 nM
Substance: p53 OD (from UniProt P04637)
